According to a protein production outcome set (Wang et al. 2014):

Test: label from the status in PepcDB records
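Also: failed if final PepcDB status was selected cloned or expressed and not failed if soluble or beyond.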

| Sequence | protein production |
| --- | --- |
| MKGFIDDANYSVGLLDEGTNLGNVIDNYVYEHTLTGKNAFFVGDLGKIVKKHSQWQTVVAQIKPFYTVKCNSTPAVLEILAALGTGFACSSKNEMALVQELGVSPENIIFTSPCKQVSQIKYAAKVGVNIMTCDNEIELKKIARNHPNAKVLLHIATEDNIGGEDGNMKFGTTLKNCRHLLECAKELDVQIIGVKFHVSSACKEYQVYVHALSDARCVFDMAGEFGFTMNMLDIGGGFTGTEIQLEEVNHVISPLLDIYFPEGSGIQIISEPGSYYVSSAFTLAVNIIAKKVVENDKFSSGVEKNGSDEPAFVYYMNDGVYGSFASKLSEDLNTIPEVHKKYKEDEPLFTSSLWGPSCDELDQIVESCLLPELNVGDWLIFDNMGADSFHEPSAFNDFQRPAIYFMMSFSDWYEMQDAGITSDAMMKNFFFAPSCIQLSQEDSFSTEA | not failed |
| PKKPGTGKHIVYFPGANTYYQACFRDISTACKETGATVHAFNFPGTGLSSGKVREANDLINAGISVVSSLIKQGVHPDDIILQGDCYGASIALEVKKQLEDQ | failed |
| MLMRTTRKISITDYGVYYYKTCRSIFDLLHESAEVASNVIHNPEGVLNISMPRSFGIFGFLPTLEKFYRIHPKIRVDVSISDSLVDFSENRFDAAVRLGVLSDSSLVARPLRPYKLVLCASPAYLARKGRPATPKDLIVHDCIATYFDEYRTAWNTLQNTWEFLCADGEFIKVSVPARMQVNDAQGVCIMVLSGQGIALLPEIIVSAHLTEGRLIELLPDYQIPSRPMSLVYRKNSLMPFKLKAFIGFLMDEFS | failed |
| MMESGAGFVAMEERISPGSFFQYPLSGFRASPNRSPCPPSDRERYLTELLQERQKLGPFLQVMPNCCRLLNHEIRRVSSFPDLDRYEHGSPFRSLGQPTNGKLDLEGWSMMQAEVSHC | failed |
| MMTGLYLGALAGIAVALAVLMAGAWVVQQLTGNSGWVDTIWTFSLGLTGAVSSLWPIDGAAPDARQWLVAVLVATWSLRLGSHIAARTRHITDDPRYAAYAAQWGTDAPKRMFFFLQNQAYGTIPLVFAIFVAAHAPAGSLRLQDYLGVLILIVAIAGEGLSDAQLKAFRENSANKGKVCDAGLWRWSRHPNYFFQWFGWLAYPVIAIPFAEPLSYLWGYAALLAPLFMYWILVYVTGIPPLEEQMLKSRGDRYRDYQARTSMFFPLPPRRSATL | failed |
| MAKAISAPITFAIILVIGILLLIPFLTYVTYLSQSNQISQAQFNNYIYLKNLEQQRAVSGRPGVYYNGSSLFILYSNGTFVPNASIVVVGILYLNNLGVWQNITSLKYPIILNRTGSVNLPSNVAGKPIILVTSLGNIFFLQPGSSIGPYSNSIGKGGVTIISQIYTSSQIYSTSINITTNINGKFSNYTTPITFPNQTGTFQVKAREYIYYINSKTGKVITGVFSNWQILGSATVNSTTTQGITVTLQGKPVILIANYSQLVQSVNLSIKTNANFSIVVNINGVNYTVNNHALSATVPAGYVNFTVYTLQGNDTSSMSSGIIKHYKFNTINYTGNTYVTNSQLLFLPPNSLPYVQINYVNDYNYYKVFLYDYYDSPPPPGGGLVVILNGTEYNYNNTYGYWIIGGNYSFVPTGIFNGSMSYEAKEVTIAGNNGILNYYFPDIPSYIIINQPMTITVYYDYVIKWVPI | failed |
| MPYEMKFKGVYVLAMEDNSSFKGKIEVGDTVTGVDGKSFKSSEELMNYIKAQKVNQKVTVQFIQDGKAKEATGKLIELPTDKKAGIGIGLTDHTLEHHHHHH | not failed |
| STISILATSDIHGNVLNYDYATGKAPTNTQGLAKVSSYVNSVRASKPNVMLIDDGDTIQGTPLSYYYDKIDTTSEYPLMKIMGAMKYDTWTLGNHEFNYGLPTLNRVISDARKENINVLSANTYNSDNTNFVNPYYIKTFNINGKTVNVGILGLTTKCIPDWEDPSHYAGLHFNDLVDEAKLWVPRMKAAGANVVIVAAHSGEEGAADTIPENQIKAIATNVSGIDAIVAGHAHVTVNDTSLKNPNGKTVPVVEPNKWGTFVSQIDITLDNSGNASTINTQNVKMTDSIPEDPNIVNIIQPYQNKTLDYIST | failed |
| MSIYNSIGKQYSQTRVPDIRIVNAIINLLNLPKGSVIADIGAGTGGYSVALANQGLFVYAVEPSIVMRQQAVVHPQVEWFTGYAENLALPDKSVDGVISILAIHHFSHLEKSFQEMQRIIRDGTIVLLTFDIRLAQRIWLYDYFPFLWEDALRFLPLDEQINLLQENTKRRVEAIPFLLPHDLSDLFAAAAWRRPELYLKAEVRAGISSFALANQDLVEKGLELLTADLNNGEWIRKYGEIHHLQEIDIGYRFIYTTLDK | not failed |
| MKAKSLMVVGTTSHAGKSLLAAVICRWLAQQGYRVTPFKGQNMALNAYVTREGGEIGYAQAMQAWAAGIEPEVAMNPILLKPQGNMTSQVILRGQVVGVTRAADYYRDYFERGWQAITEALADLQQRFDWIVCEGAGSPAEINLKHRDLTNMRVATYLGAPTILVADIDRGGVFAHIVGTLMLLEPAERALIQGIVINKFRGQRSLLDSGLQWLEETTGVPVLGVIPWLERHYAAEDSLDLWDPRPQRQGADLKITVIRLPRIANFTDIDPLLAEPSVAVEFLPPHRPLGRPDAVILPGTKTTIADLQVLRETGMAEQLKTYAAQGGTILGICGGWQMLGTAISDPLGLEGCPGTYEGLGLMPLHTQLGPTKCTQQQQTQSLYFNCPEPILGYEIHQGQSEYTGDRQGWHPLFAAPELGLVNRAGTLWGTYLHGLLENGPWRRHWLNGLRSRRQLPPLPTAIPHYGEQRTVALDELTKTVMAHLNLRGICKLC | failed |
| MKFKRLRTSENKLYYKAMELYKISFPFHEQRKSSLQEEILKNKEYQFNLIYDKNQFVGIILCWETDDFIYVEHFCIFPEMRNNRYGQRALELLNKKGKTIILEIDLPIDEISIYRKAFYERVKYKTNNYEHIHPPYHEKFNGHNLIVMSYPEKLSKMEYDKFNHYLRNNVMSF | failed |
| MYTKTKASISALLILITITLSSCSGTKNKDIYSRKNSNAAHTVATIGYDNKTYVSLKEAFKSVGGKCTLNGEGAIASKGKDIIKVSASSSTAYLNSSKIAMSANPKLKNNDIYVPMDFLNQVMDARITYSNGKLNIQTELPLKYTKAFNIKYLKGGIKKITDGNNKTVILVPKNKTVPAEYKNETVITYPVNNVLVSSATQGSLLRPLDEIKSIKTVTLKENEWEIDEIKSLLNDNKITYIGDTTSPDFEKISSSKPDVAILYGGSYGLNNMMKKFDELHINYTSDNEYLEEDPLGRLEWIKFLSAFYDKEDKAENYFNQQVSKVMATENKVSSLKKPKVAFGMVDNGKVYIPAKNSYAAKMVDMAGGDYIFKDLNNKSGYITLEDFYSKSKDADVLIYSSSKEYTPSLKSMLSAAPILKTIKPVKNKKVWCFGKDYYQAIDKTDEIIEDLASIFHPESFKGYKIKHYSHY | failed |
| SKAWLHQYSVVGRKIPTQEEPEPPIYRLKIFAPNVVNAKSRFWYFLRKLKRVKKSSGEILNISEIFEKKSTQVKNYGIWIRYKSRSDTINMYREYRDVTVNGAVEQMYKDMSGRHRARWSSIWVLKAMPVAAKDCRRSKVTQFHDSKIKFALPHMRPRAPLKKYNTPFKAKRPTTIVQ | not failed |
| MDRWNMHKPMLCDSLPTASRTAAAILNLAQREDVTAEALAQLIQTDPALTGRILRFANAPAQGTRRPVASVIDAIDLVGLPAVRQFALSLSLIDAHREGRCEAFDYAAYWQKSLARAVALQSITAQASTVAPKEAFTLGLLADVGRLALATAWPEEYSECLRKADGEALIALERERFATDHDELTRMLLTDWGFPQVFIDALQLSQQDEIRDEGRTGRFARQLALAQHIADHRLAEEPRRAALSPLLRAEARRCGLGDEDLARLLADPPADWLDWTRTIGLEHHHHHH | not failed |
| MSVNLGSLPRQRSLLSRLRDLWPLWLFLALLASALHYIVRYWPQIVLQSAIWQKSLHQQMSHLLQMVEQQPHQAGLSLMMFSLVYGVLHAVGPGHGKVVIMTYLATHPSKLKSSLKLTLAASLVQGLMAIALVTVVLGILQLSSRTLHNSSFWMEKGSFVLVAGLGLLLCFRALKQLYIVLVRQPKPATILRVIPLPVTPLNVAAHGRMTLSPIYAPSHSLHQHDVDCGCGHRHLPSNEELERGSSWHTRLMIVLAMGMRPCSGAIMVLLFSKVIGVYLWGVASALVMAAGTAITISALAVLVFYCRRVIERLGANRASPVWQRATFSLLSFAGGMILVGSGILLYLSAQPAMMGGIRPFSG | failed |
| MKKRLSLDRRFLPYIKKAGGVLVKKQMGAYVSLAAAMAIVGSSVVVGKLMVERIPVFLSSGLRFLIASVVLLMLLFCIEKGFPALTKKDVFVLLVQSFTGVFLFSICLLYGVQYTTGTESGILTSTTPMLIGILSFFLLREKIEKKTLIGILLAVCGVMAINLFGAGSQDGTPHALFGNMLIIAAVIGEALFTLMAKLLSPHISALAISTFVSLFGFLFFLPFALFEASSFDYSVPTVLDWSYVLYYALFVTVLAFYLWYSGVTKVPAGVSGIFTSVLPVSAVILSGVILKEPFEFVHFIGIACVIGGIFVTVIKKKQPDAYPAAEEKTL | failed |
| MKFAFVFPGQGSQSVGMLNAFADVAVVRETLDEASDALGQDIGKLIADGPADELNLTTNTQPVMLTAAYACYRAWQQAGGAQPSIVAGHSLGEYTALVAAGAIAFRDALPLVRFRAQAMQTAVPVGVGGMAAILGLDDDTVRAVCAEASATGVVEAVNFNAPAQVVIAGTKAGIEKACEIAKEKGAKRALPLPVSAPFHSSLLKPASDKLREYLAGVDVKAPKISVVNNIDVAVVSDPAAIKDALVRQAAGPVRWVECVQHIAREGVTHVIECGPGKVLAGLTKRIDGNLVGASVFDPASLDEALKLAAA | not failed |
| MTVAYIAIGSNLASPLEQVNAALKALGDIPESHILTVSSFYRTPPLGPQDQPDYLNAAVALETSLAPEELLNHTQRIELQQGRVRKAERWGPRTLDLDIMLFGNEVINTERLTVPHYDMKNRGFMLWPLFEIAPELVFPDGEMLRQILHTRAFDKLNKW | failed |
| MSKGRDILTKTIILALREVAPGLEAVLEAHLRATLNSGIELAYDDPQKFKEAVSKLFGEYSARLLEMVIISKLKGRLGEDIEANSLEELVSEIRKIYGE | not failed |
| MGPLVKEKYEEVEQIPLKKPHIVSLIGGFGYREPIFRKVLTTAALDSGINYTLISGPSLDPSKFKEIPKNVQILRFVGDTFPYIRSSDAVIAPGGHSTMMEALSFGTPILSFPDEGHSEQENNAAVIEEEGYGRMLSYSTPPEVILECIREVLEDKKYRDKVKRLQRLASELDGLEHHHHHH | not failed |
| MRETIREIQKVAYWLAIKGLSEANAGNISVRLDERPEGYEVKSVNEYGFDYDGPEMYLLITATGSRMREVYEDDSKICLLHVLPGKHYEILHGNGKPTSEFPTHLMIHAKFKEMNPEKKAIVHTHPLNLLTLMNLEEFQELLPKMMKIHPEVLIFFPQGISVVEFEKPGSVELGLKTVEKSEGKDAVLWDKHGVVAFGKDVAEAYDRVEILEKAAEILLRVLSLGRNPTGVPEGWL | not failed |
| HPNVTFIIGENGTGKSTLLEGIAIALGFNAEGGTKNFRFSTNDSHSSLHEYLRISKSFNTPSDGFFLRAESFYNVASYIDEIDADLEARGNPVIDSYGGISLHEQSHGESFFSLFMNRFSGQGLYILDEPEAALSPMRQLSMLIRMHELAEQGSQFVIATHSPILMAYPESTIYSLTQEG | failed |
| MGSLGFLAGGVMPLEQLKQELSEVKGVFGVNLFRPQTDAPKPSDIDELAGLLSSAFRQFGLDEPTVPTPDLSNGWEAKFEAVLAAKPAVFSCTFGIFSAEEFARIKATGIEAWVTVTNPEDALAAQKAGANALVVQGPEAGGHRSTWSIEVEPDERDLKTLLAAVKQAGVYLPLIAAGGLSTSADVAAILEAGASAASCGSAFLLSDEAGTSSLNREILDAAPALGLESVSSRAFSGRYARGVETRFTRSNEGLPPLYPYLNPMITSLRKVAGSAGNWDYAYCLVGVGLESIAKGSAKQILESLTPSALEHHHHHH | failed |
